One assay deals with T1, FcγRIIA167R (UniProt P12318 36-218).
T1 construct: Soluble protein used in SPR
T1 sequence (looked up): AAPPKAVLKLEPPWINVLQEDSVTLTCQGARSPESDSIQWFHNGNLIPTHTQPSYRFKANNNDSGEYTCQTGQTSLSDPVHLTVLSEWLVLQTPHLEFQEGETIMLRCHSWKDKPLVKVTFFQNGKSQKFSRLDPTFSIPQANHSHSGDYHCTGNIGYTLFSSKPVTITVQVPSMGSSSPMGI
As to the kind of experiment: SPR; molecule captured on CM5 chip, FcγR as analyte; steady-state fit. On the procedure:
(§1) Binding assays using SPR were performed to determine the binding affinity of the exemplary molecules. Molecules were captured on a CM5 SPR chip. Increasing concentrations of FcγR analyte (FcγRIIA167H, FcγRIIA167R or FcγRIIB) were subsequently injected over the captured molecules and a single dissociation performed using single cycle kinetics. The data was then analyzed using steady state analysis which is suitable for low affinity interactions. In particular, a plot of response at equilibrium against the molecule concentration was generated.
(In general: In SPR one partner is held on a chip, and binding of the other changes the refractive index at the surface.)

Another assay addresses T2, FcγRIIB (human, UniProt P31994 46-217, limits assumed).
T2 construct: Soluble protein used in SPR
T2 sequence (looked up): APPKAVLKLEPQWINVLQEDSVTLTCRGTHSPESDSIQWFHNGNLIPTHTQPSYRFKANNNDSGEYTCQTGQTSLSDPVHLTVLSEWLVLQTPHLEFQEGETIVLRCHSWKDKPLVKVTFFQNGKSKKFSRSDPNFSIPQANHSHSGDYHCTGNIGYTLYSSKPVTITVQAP
Described as above. On the procedure: as §1

For assay [1], the target named is T3, FcγRIIA167H (UniProt P12318 36-218).
T3 construct: Soluble protein used in SPR
T3 sequence (looked up): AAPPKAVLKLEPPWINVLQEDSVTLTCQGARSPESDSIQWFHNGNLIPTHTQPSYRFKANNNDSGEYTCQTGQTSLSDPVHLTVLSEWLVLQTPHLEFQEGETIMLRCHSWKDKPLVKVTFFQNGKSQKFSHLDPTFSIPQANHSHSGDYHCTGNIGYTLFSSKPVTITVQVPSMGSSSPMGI
The description is as above. On the procedure:
as §1

The target in assay [2] is T3, FcγRIIA167H. As to the kind of experiment: SPR, molecule captured on the sensor chip, FcγRIIA167H as analyte. The procedure: as §1

Broadly, the Kd is a measure of binding affinity in units of concentration. Low values mean a tighter complex, high ones a looser complex.

B1: Variant G4 (Fc fusion)
chain 1: MGCSSPPCECHQEEDFRVTCKDIQRIPSLPPSTQTLKLIETHLRTIPSHAFSNLPNISRIYVSIDVTLQQLESHSFYNLSKVTHIEIRNTPNLTYIDPDALKELPLLKFLGIFNTGLKMFPPLTKVYSTDIFFILEITDNPYMTSIPRNAFQGLCNETLTLKLYNNGFTSVQGYAFNGTKLDAVYLNKNKYLTVIDKDAFGGVYSGPSLLDVSQTSVTALPSKGLEHLKELRARNTWTLDKTHTCPPCPAPDLLGDDSVFLFPPKPKDTLMISRTPEVTCVVVDVSDEDGEVKFNWYVDGVEVHNAKTKPREEQYNSTYRVVSVLTVLHQDWLNGKEYKCKVSNKALPRPIEKTISKAKGQPREPQVYTLPPCRDELTKNQVSLWCLVKGFYPSDIAVEWESNGQPENNYKTTPPVLDSDGSFFLYSKLTVDKSRWQQGNVFSCSVMHEALHNHYTQKSLSLSPGK
chain 2: DKTHTCPPCPAPDLLGDDSVFLFPPKPKDTLMISRTPEVTCVVVDVSDEDGEVKFNWYVDGVEVHNAKTKPREEQYNSTYRVVSVLTVLHQDWLNGKEYKCKVSNKALPRPIEKTISKAKGQPREPQVCTLPPSRDELTKNQVSLSCAVKGFYPSDIAVEWESNGQPENNYKTTPPVLDSDGSFFLVSKLTVDKSRWQQGNVFSCSVMHEALHNHYTQKSLSLSPGK
notes: Knob-in-hole heterodimer; also called TSHR260 2P2R huIgG1 Fc E233D/G237D/P238D/H268D/P271G/A330R
B1: the Kd came to 836 nM with FcγRIIA167R and 55.6 nM with FcγRIIB.

B2: Variant G12 (Fc fusion)
chain 1: MGCSSPPCECHQEEDFRVTCKDIQRIPSLPPSTQTLKLIETHLRTIPSHAFSNLPNISRIYVSIDVTLQQLESHSFYNLSKVTHIEIRNTPNLTYIDPDALKELPLLKFLGIFNTGLKMFPPLTKVYSTDIFFILEITDNPYMTSIPRNAFQGLCNETLTLKLYNNGFTSVQGYAFNGTKLDAVYLNKNKYLTVIDKDAFGGVYSGPSLLDVSQTSVTALPSKGLEHLKELRARNTWTLDKTHTCPPCPAPELLGDDSVFLFPPKPKDTLMISRTPEVTCVVVDVSHEDGEVKFNWYVDGVEVHNAKTKPREEQYNSTYRVVSVLTVLHQDWLNGKEYKCKVSNKALPRPIEKTISKAKGQPREPQVYTLPPCREEMTKNQVSLWCLVKGFYPSDIAVEWESNGQPENNYKTTPPVLDSDGSFFLYSKLTVDKSRWQQGNVFSCSVMHEALHNHYTQKSLSLSPGK
chain 2: DKTHTCPPCPAPELLGDDSVFLFPPKPKDTLMISRTPEVTCVVVDVSHEDGEVKFNWYVDGVEVHNAKTKPREEQYNSTYRVVSVLTVLHQDWLNGKEYKCKVSNKALPRPIEKTISKAKGQPREPQVCTLPPSREEMTKNQVSLSCAVKGFYPSDIAVEWESNGQPENNYKTTPPVLDSDGSFFLVSKLTVDKSRWQQGNVFSCSVMHEALHNHYTQKSLSLSPGK
notes: Knob-in-hole heterodimer; also called TSHR260 2P2R huIgG1 Fc G237D/P238D/P271G/A330R
Consider B2, for which the Kd came to 369 nM in the assay with FcγRIIA167R, 22.3 nM with FcγRIIB and 3810 nM in the assay with FcγRIIA167H [1].

B3: Variant G13 (Fc fusion)
chain 1: MGCSSPPCECHQEEDFRVTCKDIQRIPSLPPSTQTLKLIETHLRTIPSHAFSNLPNISRIYVSIDVTLQQLESHSFYNLSKVTHIEIRNTPNLTYIDPDALKELPLLKFLGIFNTGLKMFPPLTKVYSTDIFFILEITDNPYMTSIPRNAFQGLCNETLTLKLYNNGFTSVQGYAFNGTKLDAVYLNKNKYLTVIDKDAFGGVYSGPSLLDVSQTSVTALPSKGLEHLKELRARNTWTLDKTHTCPPCPAPELLGDDSVFLFPPKPKDTLMISRTPEVTCVVVDVSHEEGEVKFNWYVDGVEVHNAKTKPREEQYNSTYRVVSVLTVLHQDWLNGKEYKCKVSNKALPRPIEKTISKAKGQPREPQVYTLPPCREEMTKNQVSLWCLVKGFYPSDIAVEWESNGQPENNYKTTPPVLDSDGSFFLYSKLTVDKSRWQQGNVFSCSVMHEALHNHYTQKSLSLSPGK
chain 2: DKTHTCPPCPAPELLGDDSVFLFPPKPKDTLMISRTPEVTCVVVDVSHEEGEVKFNWYVDGVEVHNAKTKPREEQYNSTYRVVSVLTVLHQDWLNGKEYKCKVSNKALPRPIEKTISKAKGQPREPQVCTLPPSREEMTKNQVSLSCAVKGFYPSDIAVEWESNGQPENNYKTTPPVLDSDGSFFLVSKLTVDKSRWQQGNVFSCSVMHEALHNHYTQKSLSLSPGK
notes: Knob-in-hole heterodimer; also called TSHR260 2P2R huIgG1 Fc G237D/P238D/D270E/P271G/A330R
Turning to B3, the Kd with FcγRIIA167R amounted to 1790 nM; with FcγRIIB, 127 nM.

B4: Variant G6 (Fc fusion)
chain 1: MGCSSPPCECHQEEDFRVTCKDIQRIPSLPPSTQTLKLIETHLRTIPSHAFSNLPNISRIYVSIDVTLQQLESHSFYNLSKVTHIEIRNTPNLTYIDPDALKELPLLKFLGIFNTGLKMFPPLTKVYSTDIFFILEITDNPYMTSIPRNAFQGLCNETLTLKLYNNGFTSVQGYAFNGTKLDAVYLNKNKYLTVIDKDAFGGVYSGPSLLDVSQTSVTALPSKGLEHLKELRARNTWTLDKTHTCPPCPAPEDLNGPSVFLFPPKPKDTLMISRTPEVTCVVVDVEHEDPEVKFNWYVDGVEVHNAKTKPREEQYNSTYRVVSVLTVLHQDWLNGKEYKCKVSNKALPAPIEKTISKAKGQPREPQVYTLPPCRDELTKNQVSLWCLVKGFYPSDIAVEWESNGQPENNYKTTPPVLDSDGSFFLYSKLTVDKSRWQQGNVFSCSVMHEALHNHYTQKSLSLSPGK
chain 2: DKTHTCPPCPAPEDLNGPSVFLFPPKPKDTLMISRTPEVTCVVVDVEHEDPEVKFNWYVDGVEVHNAKTKPREEQYNSTYRVVSVLTVLHQDWLNGKEYKCKVSNKALPAPIEKTISKAKGQPREPQVCTLPPSRDELTKNQVSLSCAVKGFYPSDIAVEWESNGQPENNYKTTPPVLDSDGSFFLVSKLTVDKSRWQQGNVFSCSVMHEALHNHYTQKSLSLSPGK
notes: Knob-in-hole heterodimer; also called TSHR260 2P2R huIgG1 Fc L234D/G236N/S267E
In turn, B4 showed a Kd with FcγRIIB of 335 nM. Further, in the assay with FcγRIIA167H [2], the binding result is “no binding (tested: about 2.4e-6 M)”.

B5: Variant G14 (Fc fusion)
chain 1: MGCSSPPCECHQEEDFRVTCKDIQRIPSLPPSTQTLKLIETHLRTIPSHAFSNLPNISRIYVSIDVTLQQLESHSFYNLSKVTHIEIRNTPNLTYIDPDALKELPLLKFLGIFNTGLKMFPPLTKVYSTDIFFILEITDNPYMTSIPRNAFQGLCNETLTLKLYNNGFTSVQGYAFNGTKLDAVYLNKNKYLTVIDKDAFGGVYSGPSLLDVSQTSVTALPSKGLEHLKELRARNTWTLDKTHTCPPCPAPELLGGPDVFLFPPKPKDTLMISRTPEVTCVVVDVSDEDPEVKFNWYVDGVEVHNAKTKPREEQYNSTYRVVSVLTVLHQDWLNGKEYKCKVSNKAWPAPIEKTISKAKGQPREPQVYTLPPCRDELTKNQVSLWCLVKGFYPSDIAVEWESNGQPENNYKTTPPVLDSDGSFFLYSKLTVDKSRWQQGNVFSCSVMHEALHNHYTQKSLSLSPGK
chain 2: DKTHTCPPCPAPELLGGPDVFLFPPKPKDTLMISRTPEVTCVVVDVSDEDPEVKFNWYVDGVEVHNAKTKPREEQYNSTYRVVSVLTVLHQDWLNGKEYKCKVSNKAWPAPIEKTISKAKGQPREPQVCTLPPSRDELTKNQVSLSCAVKGFYPSDIAVEWESNGQPENNYKTTPPVLDSDGSFFLVSKLTVDKSRWQQGNVFSCSVMHEALHNHYTQKSLSLSPGK
notes: Knob-in-hole heterodimer; also called TSHR260 2P2R huIgG1 Fc S239D/H268D/L328W
Turning to B5, the dissociation constant (Kd) with FcγRIIA167R was 4.32 nM; in the assay with FcγRIIB it was 30.9 nM; in the assay with FcγRIIA167H [1], 114 nM.

B6: Variant G2 (Fc fusion)
chain 1: MGCSSPPCECHQEEDFRVTCKDIQRIPSLPPSTQTLKLIETHLRTIPSHAFSNLPNISRIYVSIDVTLQQLESHSFYNLSKVTHIEIRNTPNLTYIDPDALKELPLLKFLGIFNTGLKMFPPLTKVYSTDIFFILEITDNPYMTSIPRNAFQGLCNETLTLKLYNNGFTSVQGYAFNGTKLDAVYLNKNKYLTVIDKDAFGGVYSGPSLLDVSQTSVTALPSKGLEHLKELRARNTWTLDKTHTCPPCPAPVDFRDPLVFLFPPKPKDTLMISRTPEVTCVVVDVDPEDPEVKFNWYVDGVEVHNAKTKPQEEQYNGAYRVVSVLTVLHQDWLNGKEYKCKVSNKLAPHPIIKTISKAKGQPREPQVYTLPPCRDELTKNQVSLWCLVKGFYPSDIAVEWESNGQPENNYKTTPPVLDSDGSFFLYSKLTVDKSRWQQGNVFSCSVMHEALHNHYTQKSLSLSPGK
chain 2: DKTHTCPPCPAPVDFRDPLVFLFPPKPKDTLMISRTPEVTCVVVDVDPEDPEVKFNWYVDGVEVHNAKTKPQEEQYNGAYRVVSVLTVLHQDWLNGKEYKCKVSNKLAPHPIIKTISKAKGQPREPQVCTLPPSRDELTKNQVSLSCAVKGFYPSDIAVEWESNGQPENNYKTTPPVLDSDGSFFLVSKLTVDKSRWQQGNVFSCSVMHEALHNHYTQKSLSLSPGK
notes: Knob-in-hole heterodimer; also called TSHR260 2P2R huIgG1 Fc E233V/L234D/L235F/G236R/G237D/S239L/S267D/R292Q/H268P/S298G/T299A/A327L/L328A/A330H/E333I
B6 showed an equilibrium dissociation constant (Kd) with FcγRIIB of 2610 nM. Also, in the assay with FcγRIIA167H [2], the binding result was “no binding (tested: about 2.4e-6 M)”.

B7: Variant G1 (Fc fusion)
chain 1: MGCSSPPCECHQEEDFRVTCKDIQRIPSLPPSTQTLKLIETHLRTIPSHAFSNLPNISRIYVSIDVTLQQLESHSFYNLSKVTHIEIRNTPNLTYIDPDALKELPLLKFLGIFNTGLKMFPPLTKVYSTDIFFILEITDNPYMTSIPRNAFQGLCNETLTLKLYNNGFTSVQGYAFNGTKLDAVYLNKNKYLTVIDKDAFGGVYSGPSLLDVSQTSVTALPSKGLEHLKELRARNTWTLDKTHTCPPCPAPVDFRDPLVFLFPPKPKDTLMISRTPEVTCVVVDVDPEDPEVKFNWYVDGVEVHNAKTKPREEQYNGAYRVVSVLTVLHQDWLNGKEYKCKVSNKLAPHPIIKTISKAKGQPREPQVYTLPPCRDELTKNQVSLWCLVKGFYPSDIAVEWESNGQPENNYKTTPPVLDSDGSFFLYSKLTVDKSRWQQGNVFSCSVMHEALHNHYTQKSLSLSPGK
chain 2: DKTHTCPPCPAPVDFRDPLVFLFPPKPKDTLMISRTPEVTCVVVDVDPEDPEVKFNWYVDGVEVHNAKTKPREEQYNGAYRVVSVLTVLHQDWLNGKEYKCKVSNKLAPHPIIKTISKAKGQPREPQVCTLPPSRDELTKNQVSLSCAVKGFYPSDIAVEWESNGQPENNYKTTPPVLDSDGSFFLVSKLTVDKSRWQQGNVFSCSVMHEALHNHYTQKSLSLSPGK
notes: Knob-in-hole heterodimer; also called TSHR260 2P2R huIgG1 Fc E233V/L234D/L235F/G236R/G237D/S239L/S267D/H268P/S298G/T299A/A327L/L328A/A330H/E333I
Take B7: the Kd with FcγRIIB was found to be 2620 nM. Also, the binding result with FcγRIIA167H [2] is listed as “no binding (tested: about 2.4e-6 M)”.

For the origin of these results see US20260167684A1 (MERIDA BIOSCIENCES, published 2026).
